± gives the standard deviation of the averaged measurements.
Test system: ATP
Experiment: switch fluorescence ratio, 500 uM ATP over buffer (Cy3 cluster intensity, sum of 5 cycles each) (fold (ratio)); higher = stronger signal-on switching upon ATP binding; sequences stand for … in TCGTCGGCAGCGTCAGATGTGTATAAGAGACAGTTTTTTTTTTTTTTTTTTTTTTTTT…TC
Conditions: aptamer strand: ATP DNA aptamer (quencher-CACCTGGGGGAGTATTGCGGAGGAAGG + anchor), 100 nM annealed; ATP concentration: 500 uM
Summary of the method: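 Exposure to 500 uM ATP lasted 15 min at 22 °C before imaging, and a selection-buffer image was taken beforehand, for Cy3-labelled switching-strand clusters on a modified Illumina MiSeq flow-cell annealed to 100 nM quencher-labelled ATP aptamer. Five buffer/ATP cycles were run with NaOH stripping and re-annealing between them. The fluorescence ratio per cluster is summed target-cycle over summed buffer-cycle Cy3 intensity, averaged per switch-domain sequence. Clusters outside 100-1000 RFU were excluded.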

Row | Sequence | switch fluorescence ratio
1 | TGGTTGAGGG | 1.01 ± 0.013
2 | AGGAAGGCAC | 1.05 ± 0.016
3 | GGGCCCGCTG | 0.987 ± 0.049
4 | CGTATTTATT | 1.01 ± 0.021
5 | TCGTTTGGTC | 0.986 ± 0.01
6 | TAGGGGGCGG | 0.988 ± 0.03
7 | TATGTGGCT | 1.017 ± 0.0043
8 | AAGATTTAAG | 1.02 ± 0.014
9 | AAGTTAAGGG | 0.995 ± 0.055
10 | CTTTCTATGT | 0.986 ± 0.029
11 | TGGGGGGGA | 1.03 ± 0.031
12 | ATTTTAGAAT | 1.02 ± 0.03
13 | ACATTCGCGT | 1.05 ± 0.018
14 | CGCGCCTGTG | 1.17 ± 0.23
15 | GGGGTGGCTG | 0.955 ± 0.023
16 | TGGGGTAGTT | 0.995 ± 0.01
17 | AATCCTGCGT | 1.16 ± 0.21
18 | AGTACGTTAT | 1.14 ± 0.026
19 | TTCGGACCAA | 1.46 ± 0.096
20 | TTAGGTAGGG | 0.988 ± 0.028
21 | ATAAAATTTA | 1.04 ± 0.03
22 | CGGGAGAAAT | 1.24 ± 0.34
23 | GAGAGGGCAG | 0.9869 ± 0.0072

Row | Sequence | switch fluorescence ratio
24 | ATCTTGTGGC | 0.972 ± 0.032
25 | TTGGGCGATT | 1.06 ± 0.045
26 | AACCTTGACG | 1.07 ± 0.047
27 | CTTCTGTGGG | 1.027 ± 0.0036
28 | TAGCTTGGTG | 1.04 ± 0.015
29 | ATCTACGTTG | 1.05 ± 0.012
30 | CGTAATGGGG | 1.022 ± 0.01
31 | ATATAGTCTG | 0.9893 ± 0.0046
32 | GGAGATAGTT | 0.9806 ± 0.0057
33 | ATCGTTCTGT | 0.966 ± 0.025
34 | ATAGTTGGGG | 1.02 ± 0.045
35 | GGAATAGGGT | 0.98 ± 0.052
36 | GTTAGATGTT | 1 ± 0.011
37 | ACAGGGGAAT | 1.01 ± 0.012
38 | GCGTTCTCGC | 0.968 ± 0.016
39 | AAAAGTCGCT | 1.03 ± 0.025
40 | ACTATGGTTA | 0.997 ± 0.055
41 | GTAGCGATAG | 4.13 ± 2.2
42 | ACTTGGTGTG | 1.01 ± 0.052
43 | TATTTTCGGT | 0.986 ± 0.021
44 | GATCTATGTT | 0.996 ± 0.018
45 | TTGGGCTCAG | 0.982 ± 0.013
46 | GGCGGACAGG | 1.038 ± 0.0062

Row | Sequence | switch fluorescence ratio
47 | GGTCGGGACC | 0.998 ± 0.033
48 | AATAATCGAG | 1.027 ± 0.0093
49 | CAATCTTGGG | 0.97144 ± 0.00089
50 | TCATGGGGGA | 1.03 ± 0.046
51 | TCGGTGGGGC | 1.01 ± 0.019
52 | ATGGCAACCG | 1.02 ± 0.012
53 | AATGGCATTT | 0.989 ± 0.025
54 | CCTTGACGGG | 1.18 ± 0.17
55 | AGAAGTGGAG | 1.004 ± 0.01
56 | GTCGCATGAG | 1.03 ± 0.05
57 | TTAAGGGAGG | 0.992 ± 0.03
58 | TATACGGGGA | 1.01 ± 0.021
59 | GGGTTCTTAC | 0.999 ± 0.011
60 | ATTGCAGTTT | 0.986 ± 0.022
61 | AAGATCACTT | 0.979 ± 0.041
62 | CCGTTAGAGG | 1.01 ± 0.038
63 | GGGGGGACAG | 1 ± 0.037
64 | ATAAGGTAG | 1.004 ± 0.0026
65 | TGCTCGTATA | 0.9852 ± 0.0062
66 | TTATCCAATT | 0.9804 ± 0.0089
67 | GGGGCTCATA | 0.9876 ± 0.0072
68 | GGTGTTGGGC | 0.998 ± 0.067
69 | AGTAGCTCTC | 1.02 ± 0.013

Row | Sequence | switch fluorescence ratio
70 | CGTTGCCGTT | 1.06 ± 0.1
71 | TAAATCAGAG | 0.99 ± 0.03
72 | AACGGGCTTT | 0.969 ± 0.013
73 | GCGTGGTCTG | 0.971 ± 0.04
74 | GTTAGCCGCT | 1.03 ± 0.014
75 | TTATTTGCGC | 1.024 ± 0.0036
76 | TTAGGTCATG | 0.9877 ± 0.0034
77 | AAAAGAAGCA | 0.948 ± 0.026
78 | AATGTTAAGT | 0.994 ± 0.022
79 | CGTGTTGGTA | 0.987 ± 0.013
80 | CGGCTCCTCA | 1.08 ± 0.045
81 | AAGTGAAATT | 1.02 ± 0.018
82 | TCGGCGAAGG | 1.01 ± 0.082
83 | ATCTTAGTGC | 1 ± 0.026
84 | AGGAGCATTT | 1.04 ± 0.045
85 | TACGAGGTTG | 1 ± 0.02
86 | TAAGGTCGGC | 0.986 ± 0.028
87 | CGCGGGGGTA | 0.995 ± 0.03
88 | TTTATGTGGG | 1.05 ± 0.12
89 | TGAAAGGGGG | 0.99 ± 0.014
90 | GGTTTGGTCG | 1.01 ± 0.037
91 | TGTAGCAGGT | 1.155 ± 0.0025
92 | CCTGGCTATC | 3.44 ± 0.91

Row | Sequence | switch fluorescence ratio
93 | AGTACGTTGG | 0.966 ± 0.034
94 | TTTATCCGCG | 1.25 ± 0.25
95 | GCATCATGTT | 0.987 ± 0.044
96 | CTGCGGCTGT | 1.02 ± 0.0053
97 | TAAAAATGAC | 1.07 ± 0.1
98 | CATACGTCTG | 1.04 ± 0.017
99 | GCGGGGAAAT | 0.971 ± 0.021
100 | CTACCTCCGA | 3.16 ± 0.29
101 | GGAGTGGTTG | 0.999 ± 0.036
102 | GGTTCAACAT | 0.985 ± 0.049
103 | TGGGTTACTA | 1.002 ± 0.0097
104 | GCGGGCCTGG | 1.01 ± 0.037
105 | GGGTATCGTA | 1.01 ± 0.018
106 | GCGGGGTAGG | 1.015 ± 0.0099
107 | TTATTCCGGT | 1.006 ± 0.0024
108 | GGCTTAAGCA | 0.988 ± 0.025
109 | GCTTTGTTGG | 0.984 ± 0.035
110 | TAGGTACTGG | 1.04 ± 0.014
111 | ACGCGATAAC | 4.27 ± 0.27
112 | TTTTTTAATT | 1.03 ± 0.071
113 | TGACAGTGGG | 0.959 ± 0.04
114 | CGGTAGTTCG | 0.955 ± 0.038
115 | GGCAGGTTGG | 0.952 ± 0.014

Row | Sequence | switch fluorescence ratio
116 | GGGATGAGTT | 0.98 ± 0.041
117 | TTTTTTTGAT | 1.16 ± 0.53
118 | AAGGTTTGCG | 1.01 ± 0.025
119 | CAGTTATGGC | 0.999 ± 0.026
120 | AATTTTTCCG | 1.05 ± 0.036
121 | ATGTACGTTT | 0.9983 ± 0.0007
122 | TCGGGGGTAT | 1.2 ± 0.36
123 | TAGTAGAGGT | 1 ± 0.043
124 | ATTCGGAGGG | 0.984 ± 0.011
125 | CGGCACGTGG | 0.998 ± 0.021
126 | GCTTTATGTA | 0.975 ± 0.025
127 | CGGGTCTTGG | 1.03 ± 0.023
128 | AAGTTGTATT | 0.9974 ± 0.0019
129 | GCGCGAGGGG | 1.01 ± 0.02
130 | GGTTATGCAG | 0.977 ± 0.1
131 | GTGACAGAGG | 1.02 ± 0.0015
132 | TATACTAGTT | 1.04 ± 0.033
133 | CCCGAGGGGT | 1.019 ± 0.0065
134 | ATTCTGACCG | 1.09 ± 0.068
135 | TTAGATATTT | 0.98 ± 0.024
136 | AGGCGGGCGT | 0.9623 ± 0.0022
137 | AAACCTGGCT | 1.41 ± 0.034
138 | CGAATGGGGA | 0.992 ± 0.077

Row | Sequence | switch fluorescence ratio
139 | TGATGGCGTT | 1 ± 0.031
140 | GGATCGCGAA | 0.978 ± 0.011
141 | ACCTCCCGTT | 1.12 ± 0.064
142 | AGCTACGGTG | 1.044 ± 0.0052
143 | TGGTTGGGAC | 0.9953 ± 0.0089
144 | GGGGCGGGAA | 0.982 ± 0.05
145 | TTTCCAGTAA | 1.036 ± 0.0068
146 | AACGTTATAA | 1.05 ± 0.02
147 | TGTGTTGCCT | 1.05 ± 0.015
148 | ATTGTAGGGA | 1 ± 0.015
149 | CGGCATTGGG | 1.02 ± 0.04
150 | CACTTAGGCT | 1.01 ± 0.011
151 | GTGGGGTAAG | 0.987 ± 0.014
152 | TAGTTGACAA | 0.99 ± 0.0024
153 | ATACGGAGGC | 1.03 ± 0.1
154 | CCTCATCTTG | 1.018 ± 0.0048
155 | TAAGTGGTTT | 1 ± 0.019
156 | CTTCTTGCTG | 0.972 ± 0.011
157 | TTCAGAAACA | 1.04 ± 0.037
